Experimental data from US12702697B2, “Compositions and methods for treatment of headache disorders and neuropathic pain” (Washington University, priority 2019, dated 2026).

How the values were obtained:
[1] = tested on: IFNγ secretion by splenocytes; assay: IFNγ ELISA and ELISPOT of CD3/CD28-stimulated splenocytes; type: cell-based, mouse
Method: To quantify interferon g (IFNγ) secretion, splenocytes were plated in 24-well plates (5 3 106 per well) and stimulated with antiCD3 and anti-CD28 antibodies ([…]) in 1 mL complete RPMI1640 media overnight. IFNγ in the supernatants were quantified by ELISA (430901; Biolegend).
ELISPOT assay was performed to determine the number of INFg-secreting cells. Splenocytes were plated at 5×10^4 cells per well and incubated overnight with RPMI1640 media containing anti-CD3 and anti-CD28 antibodies ([…]) for stimulation. IFNg was detected using a colorimetric reagent kit (R&D SEL485 and SEL002). Following development, images were captured and analyzed on the ImmunoSpot7.0 plate reader (Cellular Technologies, Kennesaw, GA).

[2] = tested on: mTBI-induced facial mechanical hypersensitivity in mice; assay: Mouse model of mild traumatic brain injury-induced post-traumatic headache (facial mechanical thresholds, low-dose NTG priming); type: in vivo
Source text: Mouse model of mild traumatic brain injury-induced post-traumatic headache. Adult Swiss Webster mice (30-35 g) were subjected to mTBI using a modified closed head weight-drop method. 43, 58 Briefly, mice were anesthetized with 3% isoflurane for 90 seconds and were placed chest down on a foam sponge (4-cm thickness and 0.062-g/cm3 density) directly underneath a hollow cylindrical tube (1.5-cm inner diameter) placed approximately 1 cm vertically over the mouse's head. To induce mTBI, a 30-g weight (1.3-cm diameter and 3.4-cm height) was dropped through the tube from a height of 80 cm, striking the center point between the ears once. All mice regained righting reflex within 2 minutes. […] Sham mice were anesthetized with 3% isoflurane for 90 seconds but not subjected to the weight drop. Facial mechanical thresholds were measured before and at various time points after mTBI. Daily ldIL2 or saline were administered 1 or 7 days after the sham or mTBI procedure. To reveal mTBI-induced hyperalgesia priming, mice received daily i.p. injections of NTG (0.1 mg/kg, i.p.) for 4 to 6 days, starting at 35 days after mTBI. Facial mechanical thresholds were measured between day 35 and 43 days after mTBI. Note that on the days that the mouse behaviors were tested, NTG and/or IL2 were always injected after completing the behavioral tests.
Withdrawal responses to facial mechanical stimuli. The hair on mouse forehead (above and between 2 eyes) was shaved the day before testing. On the test day, the experimenter gently held the mouse on the palm with minimal restraint and applied the calibrated von Frey filament perpendicularly to the shaved skin, causing the filament to bend for 5 seconds. A positive response was determined by the following criteria as previously described: mouse vigorously stroked its face with the forepaw, head withdrawal from the stimulus, or head shaking (Elliott M B et al., Headache 2012; 52:966-84). The up-down paradigm was used to determine the 50% withdrawal threshold.

[3] = tested on: mTBI-induced memory deficit in mice; assay: Novel object recognition (NOR) assay after mTBI; type: in vivo, mouse; details: ld-IL2 between day 6 and 12 post-mTBI
Method: The novel object recognition (NOR) assay was used to test the effect of mTBI and ld-IL2 treatment on cognition. On the training day, mice were allowed to explore two identical objects in an arena for 10 minutes. The next day, mice were allowed to explore the same space in the presence of the familiar object and a novel object to test long-term recognition memory. […] After mTBI, mice spent similar amounts of time exploring the familiar and the novel object, indicating a deficit in recognition memory (FIG. 12, mTBI+saline). […] Remarkably, the effect of ld-IL2 on memory deficit lasted for at least 20 days after the cessation of treatment.

[4] = tested on: Treg cells; assay: Flow cytometry of T-cell subsets in peripheral blood, cervical LNs and spleen; type: in vivo, mouse
Source text: Blood, spleen, and cervical lymph node cell preparation, antibody staining, flow cytometry, and enzyme-linked immunosorbent assay (ELISA). Adult male DEREG and C57BL/6J mice received 15 daily injections of saline or IL2. About […] blood was collected from each mouse by submandibular bleeding. Mice used for blood collection were not used in the behavioral tests. Spleen and cervical LN tissues were ground and filtered through a sterile […] cell strainer. After lysis of red blood cells (420301; Biolegend), cells were pelleted and resuspended for antibody staining, ELISA, and ELISPOT assay. Live cells were counted by the Vi-CELL Automated Cell Viability Analyzer (Beckman, Chaska, MN).
About 2×10^6 suspension cells were stained with the following antibodies from Biolegend that recognizes mouse CD3e (clone 145-2C11), CD4 (clone GK1.5 and RM4-5), CD8 (clone 53-6.7), and CD25 (clone PC61). The percentages of individual cell phenotypes were determined using flow cytometric analysis. Data were collected with FACScan (Becton Dickinson, Franklin Lakes, NJ) and analyzed with CellQuest Pro (Becton Dickinson) and Rainbow X Alias (Cytek) softwares.

[5] = daily ld-IL2 starting 1 day after mTBI for 9 days, female Swiss Webster
[6] = 15 days of ld-IL2, C57BL/6J males

B1: ld-IL2: Recombinant mouse IL2 (carrier-free; Biolegend), given as daily low-dose i.p. injection (protein, UniProt P04351 21-169, looked up)
Interleukin-2: APTSSSTSSSTAEAQQQQQQQQQQQQHLEQLLMDLQELLSRMENYRNLKLPRMLTFKFYLPKQATELKDLQCLEDELGPLRHVLDLTQSKSFQLEDAENFISNIRVTVVKLKGSDNTFECQFDDESATVVDFLRRWIAFCQSIISTSPQ
- amount of CD3/CD28 stimulation-induced IFNγ secretion ([1]; ELISA, cells from IL-2-treated mice): significantly reduced
- number of splenocytes secreting IFNγ ([1]; ELISPOT, 15 days of ld-IL2): not altered
- persistent facial mechanical hypersensitivity to repeated low-dose NTG after mTBI ([2]; 3 weeks after cessation of ld-IL2, male Swiss Webster): failed to establish
- duration of protection from mTBI-induced hyperalgesia priming ([2]; 9 days of ld-IL2 treatment, male and female mice): at least 30 days
- facial mechanical threshold, % of the baseline value ([2]; after 3 days of ld-IL2 (day 10), started post-mTBI day 7 (about 26%), male Swiss Webster): 87%
- facial mechanical sensitivity of sham mice ([2]; daily ld-IL2, male Swiss Webster): did not change
- hyperalgesia priming revealed by repeated low-dose NTG [2, 5]: completely prevented
- mTBI-induced acute facial mechanical hypersensitivity [2, 5]: completely prevented
- mTBI-induced facial skin hypersensitivity at the end of ld-IL2 treatment ([2]; day 15, ld-IL2 day 7 onward for 9 days, male Swiss Webster): fully reversed
- duration of the effect on memory deficit after cessation of treatment [3]: at least 20 days
- novel object recognition deficit after mTBI [3]: did not exhibit NOR deficit
- percentage of EGFP+ Treg cells in the cervical LNs ([4]; 15 daily ld-IL2 injections, male DEREG mice): increased significantly
- number and frequency of CD25+CD4+ Treg cells in the spleen [4, 6]: doubled
- number of CD8+ cells in the spleen [4, 6]: increased only slightly
- increase of the frequency of EGFP+ Treg cells in the peripheral blood ([4]; after 5 daily ld-IL2 injections i.p., male DEREG mice): more than 100%
- frequencies of CD4+ and CD3+ T cells in the blood or LNs ([4]; daily ld-IL2, 15 days): not altered
